Laboratory results from patent US20200216522A1 (DENALI THERAPEUTICS, published 2020).
Where a chain is given by its changes, count along the chain named. * marks the point of attachment. Biotin = O=C1N[C@H]2[C@H](CS[C@H]2CCCCC(=O)*)N1

T1: Peptide_084 (human)
T1 peptide: SIDMVDSPQLATLAD

T2: Peptide_086 (human)
T2 peptide: ATLADEVSASLAKQG

T3: Peptide_054 (human)
T3 peptide: LKHQPGGGKVQIINK

T4: Peptide_080 (human)
T4 peptide: SPVVSGDTSPRHLSN

T5: Peptide_002 (human)
T5 peptide: QEFEVMEDHAGTYGL

T6: Peptide_053 (human)
T6 peptide: GSTENLKHQPGGGKV

T7: Peptide_019 (human)
T7 peptide: AQPHTEIPEGTTAEE

T8: Peptide_024 (human)
T8 peptide: DEAAGHVTQARMVSK

T9: Peptide_017 (human)
T9 peptide: DEGAPGKQAAAQPHT

T10: Peptide_009 (human)
T10 peptide: AGLKESPLQTPTEDG

T11: Peptide_013 (human)
T11 peptide: SETSDAKSTPTAEDV

T12: Peptide_069 (human)
T12 peptide: SEKLDFKDRVQSKIG

T13: Peptide_064 (human)
T13 peptide: SKVTSKCGSLGNIHH

T14: Peptide_001 (human)
T14 peptide: MAEPRQEFEVMEDHA

T15: Peptide_057 (human)
T15 peptide: KLDLSNVQSKCGSKD

T16: Peptide_008 (human)
T16 peptide: EGDTDAGLKESPLQT

T17: Peptide_022 (human)
T17 peptide: AGIGDTPSLEDEAAG

T18: Peptide_010 (human)
T18 peptide: SPLQTPTEDGSEEPG

T19: Peptide_071 (human)
T19 peptide: QSKIGSLDNITHVPG

T20: Tau 251-270 peptide, unphosphorylated (human, N-terminal biotin; C-terminal amide)
T20 peptide: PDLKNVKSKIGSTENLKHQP

T21: Tau 346-360 peptide, unphosphorylated (human, SMILES …)
T21 peptide: Biotin-FKDRVQSKIGSLDNI-NH2

B1: chimeric IgG clone 1A5 (antibody, V domains shown)
VH: EVQLQQSGAELVRPGASVKLSCTASGFNIKDSLIHWVKQRPEQGLEWIGWIDPEDGETKYAPKFQDKATKTADTSSNTAYLQLSSLTSEDTAIYYCASGEWDYWGQGTSVTVSS
VL: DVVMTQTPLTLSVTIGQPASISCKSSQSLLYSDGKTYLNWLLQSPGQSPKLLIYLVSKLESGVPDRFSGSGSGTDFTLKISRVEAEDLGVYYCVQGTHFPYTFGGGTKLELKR
notes: mouse-human chimeric IgG from HEK293
B2: chimeric IgG clone 1A1 (antibody, V domains shown)
VH: EVQLQQSGAELVRPGASVRLSCTASGFNIKDSLMHWLKQRPEQGLEWIGWIDPEDGETKYAPKFQDKATITADTSSNTAYLQLSSLTSEDTAIYYCTRRDWEGPWGQGTLVTVSA
VL: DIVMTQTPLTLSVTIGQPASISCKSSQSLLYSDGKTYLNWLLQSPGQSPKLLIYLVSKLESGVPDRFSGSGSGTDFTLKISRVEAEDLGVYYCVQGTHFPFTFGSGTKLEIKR
notes: mouse-human chimeric IgG from HEK293; also called anti-Tau 1A1; anti-Tau^1A1
B3: chimeric IgG clone 1G7 (antibody, V domains shown)
VH: B2 VH with L11V, R19K, A24T, E89G, T97A
VL: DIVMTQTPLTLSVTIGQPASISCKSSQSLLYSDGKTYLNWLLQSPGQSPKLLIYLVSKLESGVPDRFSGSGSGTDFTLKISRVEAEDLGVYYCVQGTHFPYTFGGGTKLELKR
notes: as for B1
B4: murine anti-Tau hybridoma antibody 17G2.A1 (antibody, V domains shown)
VH: QVQLQQPGAELVGPGSSVKLSCKASGYTFINYWIDWMKQSPGQGLEWIGNIYPSDSESHYNQKFTDKATLTVDISSSTAYLQLSSLTSEDSAVYYCALYSKGYWGQGTSVTVSS
VL: DVLMTQTPLSLPVTLGDQASISCRSSQNIVHTNGNTYLEWYLQKPGQSPKLLIYKLSSRFSGVPDRFSGSGSGTDFTLKISRVEAEDLGVYYCFQGSHLPFTFGGGTKLEIKR
notes: mouse IgG from hybridoma; also called anti-Tau 17G2.A1

Columns and labels:
[1] = target: T1, Peptide_084; assay: peptide array
Method: (§1) Chimeric IgG antibodies were diluted to a concentration of 5 μg/mL in 3% bovine serum albumin in Tris-buffered saline (10 mM Tris, pH 7.5, 150 mM NaCl) supplemented with 0.05% Tween®20 (3% BSA-TBST). Diluted antibodies were allowed to bind to peptides printed onto slides for 2 hours at room temperature as described in the PepStar™ user manual (JPT Technologies). Following extensive washing (5×5 minutes with TBST), slides were incubated with secondary antibodies goat anti-human IgG, Alexa Fluor 568 conjugate, 1 μg/mL in 3% BSA-TBST) for 1 hour at room temperature. After extensive washing, (5×5 minutes with TBST, then 5×5 minutes with ultrapure water), slides were dried overnight and imaged using an Opera Phenix™ system in the 568 nm channel. Images were aligned to peptide array definition files using Galviewer software obtained from JPT Technologies and ImageJ software with control human IgG serving as landmarks.
(§2) Full-length human Tau (encoded by the microtubule-associated protein Tau isoform 2 gene (MAPT), amino acid sequence NCBI Reference Sequence No. NP_005901.2, SEQ ID NO: 1, variant designation “2N4R”) was divided into 15 amino acid peptides, offset by 5 amino acids (overlapping by 10 amino acids). Peptides were synthesized and covalently attached to silica slides in triplicate with a spot size of 0.5 mm (obtained from JPT Technologies, Berlin, Germany). Antibodies muIgG were diluted to a concentration of 30 μg/mL in 3% bovine serum albumin in Tris-buffered saline (10 mM Tris, pH 7.5, 150 mM NaCl) supplemented with 0.05% Tween® 20 (3% BSA-TBST). Diluted antibodies were allowed to bind to peptides printed onto slides for 2 hours at room temperature as described in the Pepstar™ user manual (JPT Technologies). Following extensive washing (5×5 min TBST), slides were incubated with secondary antibodies (donkey anti-mouse IgG, Alexafluor 647 conjugate, 5 μg/mL in 3% BSA-TBST) for 1 hour at room temperature. After extensive washing, (5×5 minutes TBST, 5×5 minutes ultrapure water), slides were dried under a stream of nitrogen and imaged on the Opera Phenix in the 647 nm channel. Images were aligned to peptide array definition file using Galviewer software obtained from JPT Technologies and ImageJ software with control mouse IgG serving as landmarks.

[2] = target: T2, Peptide_086; assay: peptide array
Method: as §1, §2

[3] = target: T3, Peptide_054; assay: peptide array
Method: as §1, §2

[4] = target: T4, Peptide_080; assay: peptide array
Method: as §1, §2

[5] = target: T5, Peptide_002; assay: peptide array
Method: as §1, §2

[6] = target: T6, Peptide_053; assay: peptide array
Method: as §1, §2

[7] = target: T7, Peptide_019; assay: peptide array
Method: as §1, §2

[8] = target: T8, Peptide_024; assay: peptide array
Method: as §1, §2

[9] = target: T9, Peptide_017; assay: peptide array
Method: as §1, §2

[10] = target: T10, Peptide_009; assay: peptide array
Method: as §1, §2

[11] = target: T11, Peptide_013; assay: peptide array
Method: as §1, §2

[12] = target: T12, Peptide_069; assay: peptide array
Method: as §1, §2

[13] = target: T13, Peptide_064; assay: peptide array
Method: as §1, §2

[14] = target: T14, Peptide_001; assay: peptide array
Method: as §1, §2

[15] = target: T15, Peptide_057; assay: peptide array
Method: as §1, §2

[16] = target: T16, Peptide_008; assay: peptide array
Method: as §1, §2

[17] = target: T17, Peptide_022; assay: peptide array
Method: as §1, §2

[18] = target: T18, Peptide_010; assay: peptide array
Method: as §1, §2

[19] = target: T19, Peptide_071; assay: peptide array
Method: as §1, §2

[20] = target: T20, Tau 251-270 peptide, unphosphorylated; assay: ELISA on biotinylated peptide
Method: (§3) Peptides corresponding to original binding sites on the microarray were synthesized and included all permutations of phospho-serine epitopes. Peptides were synthesized with a biotinylated N-terminus and C-terminal amide. Peptides were purified and confirmed by mass spectrometry. Peptides were then bound to streptavidin-coated plates in half serial dilutions from 250 ng/well of each peptide. Antibody binding was tested at 1 μg/mL in 5% BSA TBST, followed by washing and detection with goat anti-human HRP (as described above in the “Chimeric IgG ELISA” section).

[21] = target: T21, Tau 346-360 peptide, unphosphorylated; assay: ELISA on biotinylated peptide
Method: as §3

[22] = target: T22, full-length human Tau (Tau441; 2N4R), recombinant (human, UniProt P10636 1-758); assay: Octet binning on biotin-r-Tau; competitor 1A5
T22 construct: made in E. coli, His6-Smt3 tag removed; biotinylated through amines for Octet and phage work; also called r-Tau; recombinant Tau
T22 sequence (P10636 other isoform, or with tags, fused parts or gaps limits assumed): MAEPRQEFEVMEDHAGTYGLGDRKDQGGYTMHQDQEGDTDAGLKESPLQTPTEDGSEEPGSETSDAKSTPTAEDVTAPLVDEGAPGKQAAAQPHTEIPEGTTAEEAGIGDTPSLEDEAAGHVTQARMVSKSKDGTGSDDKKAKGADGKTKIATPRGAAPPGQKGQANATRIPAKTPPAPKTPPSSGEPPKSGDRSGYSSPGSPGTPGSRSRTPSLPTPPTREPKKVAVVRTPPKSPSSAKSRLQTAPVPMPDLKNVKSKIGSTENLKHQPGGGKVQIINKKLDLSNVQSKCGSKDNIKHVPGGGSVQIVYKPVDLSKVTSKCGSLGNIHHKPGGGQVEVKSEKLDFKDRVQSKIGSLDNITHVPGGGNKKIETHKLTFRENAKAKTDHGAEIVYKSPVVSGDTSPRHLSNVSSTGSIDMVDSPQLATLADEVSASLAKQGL
Method: (§4) Epitope binning assays were performed using a FortéBio® Octet® RED384 instrument using FortéBio® Streptavidin biosensors. Biotinylated recombinant Tau was diluted to a concentration of 2 μg/mL in kinetic buffer (obtained from FortéBio®) and captured onto individual biosensors for 1 minute. A baseline was then established for 1 minute in kinetic buffer. The loaded biosensors were dipped into 10 μg/mL of the first chimeric IgG antibody until signal saturation, followed by dipping into 1 μg/mL of a second antibody. The binding for the second antibody was normalized to its total binding in the absence of the first antibody.

[23] = target: T22, full-length human Tau (Tau441; 2N4R), …; assay: Octet binning on biotin-r-Tau; competitor 1C7
Method: as §4

[24] = target: T22, full-length human Tau (Tau441; 2N4R), …; assay: Octet binning on biotin-r-Tau; row antibody Ab107 (anti-BACE1 control)
Method: as §4

Binder	binding result [1]	binding result [2]	binding result [3]	binding result [4]	binding result [5]	binding result [6]	binding result [7]	binding result [8]	binding result [9]	binding result [10]	binding result [11]	binding result [12]	binding result [13]	binding result [14]	binding result [15]	binding result [16]	binding result [17]	binding result [18]	binding result [19]	binding result [20]	further results
B1	no binding (tested: 5 ug/mL)	no binding (tested: 5 ug/mL)	no binding (tested: 5 ug/mL)	no binding (tested: 5 ug/mL)	no binding (tested: 5 ug/mL)	no binding (tested: 5 ug/mL)	no binding (tested: 5 ug/mL)	no binding (tested: 5 ug/mL)	no binding (tested: 5 ug/mL)	no binding (tested: 5 ug/mL)	no binding (tested: 5 ug/mL)	no binding (tested: 5 ug/mL)	no binding (tested: 5 ug/mL)	no binding (tested: 5 ug/mL)	no binding (tested: 5 ug/mL)	no binding (tested: 5 ug/mL)	no binding (tested: 5 ug/mL)	no binding (tested: 5 ug/mL)	no binding (tested: 5 ug/mL)	binds	binding result [21]: binds; normalized binding of second antibody [22]: -0.13; normalized binding of second antibody [23]: 0.7; normalized binding of second antibody [24]: 1
B2	no binding (tested: 5 ug/mL)	no binding (tested: 5 ug/mL)	no binding (tested: 5 ug/mL)	no binding (tested: 5 ug/mL)	no binding (tested: 5 ug/mL)	no binding (tested: 5 ug/mL)	no binding (tested: 5 ug/mL)	no binding (tested: 5 ug/mL)	no binding (tested: 5 ug/mL)	no binding (tested: 5 ug/mL)	no binding (tested: 5 ug/mL)	no binding (tested: 5 ug/mL)	no binding (tested: 5 ug/mL)	no binding (tested: 5 ug/mL)	no binding (tested: 5 ug/mL)	no binding (tested: 5 ug/mL)	no binding (tested: 5 ug/mL)	no binding (tested: 5 ug/mL)	no binding (tested: 5 ug/mL)	binds	binding result [21]: binds
B3	no binding (tested: 5 ug/mL)	no binding (tested: 5 ug/mL)	no binding (tested: 5 ug/mL)	no binding (tested: 5 ug/mL)	no binding (tested: 5 ug/mL)	no binding (tested: 5 ug/mL)	no binding (tested: 5 ug/mL)	no binding (tested: 5 ug/mL)	no binding (tested: 5 ug/mL)	no binding (tested: 5 ug/mL)	no binding (tested: 5 ug/mL)	no binding (tested: 5 ug/mL)	no binding (tested: 5 ug/mL)	no binding (tested: 5 ug/mL)	no binding (tested: 5 ug/mL)	no binding (tested: 5 ug/mL)	no binding (tested: 5 ug/mL)	no binding (tested: 5 ug/mL)	no binding (tested: 5 ug/mL)	binds	binding result [21]: binds; normalized binding of second antibody [22]: -0.04; normalized binding of second antibody [23]: 0.85; normalized binding of second antibody [24]: 1
B4	no binding (tested: 30 ug/mL)	no binding (tested: 30 ug/mL)	no binding (tested: 30 ug/mL)	no binding (tested: 30 ug/mL)	no binding (tested: 30 ug/mL)	no binding (tested: 30 ug/mL)	no binding (tested: 30 ug/mL)	no binding (tested: 30 ug/mL)	no binding (tested: 30 ug/mL)	no binding (tested: 30 ug/mL)	no binding (tested: 30 ug/mL)	no binding (tested: 30 ug/mL)	no binding (tested: 30 ug/mL)	no binding (tested: 30 ug/mL)	no binding (tested: 30 ug/mL)	no binding (tested: 30 ug/mL)	no binding (tested: 30 ug/mL)	no binding (tested: 30 ug/mL)	no binding (tested: 30 ug/mL)	–	–
